Experimental data: US20100135991A1 (published 2010)

B1: monoclonal antibody 5F4 (antibody, mouse IgM, V domains shown)
VH: QIQLVQSGPELKKPGETVKISCKASDYTFTDYSMHWVKQAPGKGLKWMGWINTETGEPTYADDFKGRFAFPLETSASTAYLQINNLKNEDTATYFCARNHGYNLAYWGQGTLVTVSA
VL: DIVMTQSQKFMSTSVGDRVSLTCKSSQNVRTAVTWYQQKPGQSPKALIYLASNRHTGVPDRFTGSGSGTDFTLTISNVQSEDLADYFCLQHWNYPLTFGGGTKLEIK
notes: Mouse IgM, kappa, from a hybridoma; also called m5F4; murine 5F4
B2: antibody 9A6.2 (antibody, mouse IgM, V domains shown)
VH: EVKLVESGGGLVKPGGSLKLSCAASGFTFSSYAMSWVRQTPEKRLEWVASISSGGSTYYPDSVKGRFTISRDNARNILYLQMSSLRSEDTAMYYCARGRGYYAYYFDYWGQGTTLTVSS
VL: ETTVTQSPASLSVATGEKVTIRCITSTDIDDDMNWYQQKPGEPPKLLISEGNTLRPGVPSRFSSSGYGTDFVFTIENTLSEDVADYYCLQSDNMPFTFGSGTKLEIK
notes: Mouse IgM, kappa

Experiments:
[1] = target: T1, human ORP150-3x Flag with deletion of amino acids 673-752 (human, UniProt Q9Y4L1 33-999); assay: anti-FLAG capture ELISA and Western blot
T1 construct: Deletion mutant made by overlapping PCR, expressed in Flp-In CHO cells
T1 sequence: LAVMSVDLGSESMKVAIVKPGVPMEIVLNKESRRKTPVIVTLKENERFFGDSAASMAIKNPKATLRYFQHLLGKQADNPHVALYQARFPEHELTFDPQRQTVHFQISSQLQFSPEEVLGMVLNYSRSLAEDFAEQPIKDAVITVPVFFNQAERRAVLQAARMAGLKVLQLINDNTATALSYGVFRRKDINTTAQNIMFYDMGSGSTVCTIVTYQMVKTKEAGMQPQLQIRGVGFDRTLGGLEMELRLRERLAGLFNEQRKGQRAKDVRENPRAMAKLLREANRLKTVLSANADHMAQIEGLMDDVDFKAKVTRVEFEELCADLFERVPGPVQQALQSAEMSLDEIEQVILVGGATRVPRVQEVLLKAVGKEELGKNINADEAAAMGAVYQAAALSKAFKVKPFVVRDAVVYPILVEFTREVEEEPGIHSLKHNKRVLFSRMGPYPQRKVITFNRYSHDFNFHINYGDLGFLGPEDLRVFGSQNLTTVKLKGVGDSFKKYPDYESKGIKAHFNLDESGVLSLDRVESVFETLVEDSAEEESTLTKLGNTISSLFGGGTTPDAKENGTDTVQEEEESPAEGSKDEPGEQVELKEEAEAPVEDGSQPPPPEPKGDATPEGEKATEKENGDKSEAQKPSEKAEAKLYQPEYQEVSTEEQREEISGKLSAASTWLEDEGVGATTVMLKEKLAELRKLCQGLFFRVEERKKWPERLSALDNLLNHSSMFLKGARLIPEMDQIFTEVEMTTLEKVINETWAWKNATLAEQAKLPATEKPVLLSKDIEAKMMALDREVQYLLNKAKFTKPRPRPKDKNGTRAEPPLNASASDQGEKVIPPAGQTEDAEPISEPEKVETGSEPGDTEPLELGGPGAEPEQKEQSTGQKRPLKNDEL
Description: (§1) Binding of 5F4 to the ORP150 wild type or mutant proteins generated from the supernatant of the transfected cells were tested using ELISA assay by coating the surface with anti-FLAG antibody, allowing binding of the ORP150 proteins in the supernatant to the anti-FLAG antibody, and detecting binding of 5F4 to the ORP150 proteins.
(§2) Binding of 5F4 to the wild type or the mutant ORP150 proteins from the supernatant and cell lysates was also tested using Western blot assays by immunoprecipitation the ORP150 proteins from the supernatant or cell lysates using anti-FLAG antibody, and detecting binding of 5F4 to the ORP150 proteins on the Western blot. The anti-Flag M2 affinity gel (Sigma, Cat. No. A2220) was used to immuno-precipitate the recombinant human ORP150 from the supernatant and cell lysates of the transfected cells. The IP products were subjected to SDS-PAGE and then transferred onto nitrocellulose membrane for Western blotting. […] The blotting signal was detected with Immobilon Western-Chemiluminescent HRP Substrate kits (Millipore, Cat. No. WBKLS0500)
(§3) Based on the Western blotting with anti-FLAG antibody, all the deletion mutants of hORP150 were successfully expressed in Flp-In™ CHO Cells. […] To further characterize the epitope, additional mutant ORP150 proteins were generated. […]

[2] = target: T2, human ORP150-3x Flag with deletion of amino acids 723-732 (human, UniProt Q9Y4L1 33-999); assay: anti-FLAG capture ELISA and Western blot
T2 sequence: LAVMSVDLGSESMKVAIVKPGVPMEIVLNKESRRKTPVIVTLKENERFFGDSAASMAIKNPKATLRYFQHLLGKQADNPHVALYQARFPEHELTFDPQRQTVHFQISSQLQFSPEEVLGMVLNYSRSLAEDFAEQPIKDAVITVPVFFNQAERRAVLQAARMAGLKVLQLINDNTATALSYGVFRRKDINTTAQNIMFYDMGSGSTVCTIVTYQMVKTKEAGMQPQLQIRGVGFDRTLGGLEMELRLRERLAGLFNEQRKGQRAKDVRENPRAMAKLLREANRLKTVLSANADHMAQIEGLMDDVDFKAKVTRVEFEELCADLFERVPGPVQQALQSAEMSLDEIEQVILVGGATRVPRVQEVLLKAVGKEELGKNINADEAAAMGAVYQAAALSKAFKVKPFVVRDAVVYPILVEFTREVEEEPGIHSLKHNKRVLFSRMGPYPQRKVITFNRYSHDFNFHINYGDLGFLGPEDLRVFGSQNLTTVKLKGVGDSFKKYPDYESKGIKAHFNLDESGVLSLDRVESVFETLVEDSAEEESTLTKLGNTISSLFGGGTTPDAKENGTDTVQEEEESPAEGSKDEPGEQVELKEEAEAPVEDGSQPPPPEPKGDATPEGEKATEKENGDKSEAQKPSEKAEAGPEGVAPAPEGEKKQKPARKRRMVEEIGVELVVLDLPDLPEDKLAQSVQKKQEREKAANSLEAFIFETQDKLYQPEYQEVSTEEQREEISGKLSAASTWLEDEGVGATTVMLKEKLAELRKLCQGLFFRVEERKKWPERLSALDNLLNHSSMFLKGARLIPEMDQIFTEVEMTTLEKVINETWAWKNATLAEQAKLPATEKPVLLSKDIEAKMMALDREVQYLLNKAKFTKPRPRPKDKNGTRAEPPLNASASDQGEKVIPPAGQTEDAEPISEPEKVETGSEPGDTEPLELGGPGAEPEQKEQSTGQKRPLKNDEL
Description: as §1, §2, §3

[3] = target: T3, zinc-binding alcohol dehydrogenase domain containing 2 (UniProt Q8N4Q0 1-377, limits assumed); assay: Western blot
T3 construct: also called unrelated protein
T3 sequence (looked up): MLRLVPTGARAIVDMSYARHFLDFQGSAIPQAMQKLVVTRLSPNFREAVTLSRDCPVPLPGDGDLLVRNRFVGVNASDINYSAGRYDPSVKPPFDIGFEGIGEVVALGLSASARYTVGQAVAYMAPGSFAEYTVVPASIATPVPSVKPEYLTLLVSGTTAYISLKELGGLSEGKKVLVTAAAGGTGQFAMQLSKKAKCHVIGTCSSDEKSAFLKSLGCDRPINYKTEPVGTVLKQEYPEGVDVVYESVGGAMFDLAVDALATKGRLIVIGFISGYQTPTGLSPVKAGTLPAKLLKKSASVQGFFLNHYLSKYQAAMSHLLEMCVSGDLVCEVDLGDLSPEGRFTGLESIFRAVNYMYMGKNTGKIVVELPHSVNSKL
Description: Western blot was performed to confirm the binding specificity of antibody 3B6.1, 6A4.28 and 9A6.2. […] The amino acid sequences of the heavy and light chain variable region of antibody 3B6.1 (IgM, K), 6A4.28 (IgM, K) and 9A6.2 (IgM, K) are shown in FIGS. 3A and 3B, 4A and 4B, and 5A and 5B, respectively.

| Binder | binding result [1] | binding result [2] | binding result [3] |
| --- | --- | --- | --- |
| B1 | no binding | no binding |  |
| B2 |  |  | no binding |
